Test results taken from US20250179186A1 (REGENTS OF THE UNIVERSITY OF MINNESOTA, published 2025).

T1: human B7-H3 expressed by Mile Sven 1 cells stably transfected to express human B7-H3 (MS1-B7-H3) (human, UniProt Q5ZPR3 29-534)
T1 construct: whole, on cells; In the FACS sorts it was used as detergent solubilized, non-specifically biotinylated MS1-B7-H3 cell lysate; also called CD276; MS1-B7-H3 cells
T1 sequence (looked up): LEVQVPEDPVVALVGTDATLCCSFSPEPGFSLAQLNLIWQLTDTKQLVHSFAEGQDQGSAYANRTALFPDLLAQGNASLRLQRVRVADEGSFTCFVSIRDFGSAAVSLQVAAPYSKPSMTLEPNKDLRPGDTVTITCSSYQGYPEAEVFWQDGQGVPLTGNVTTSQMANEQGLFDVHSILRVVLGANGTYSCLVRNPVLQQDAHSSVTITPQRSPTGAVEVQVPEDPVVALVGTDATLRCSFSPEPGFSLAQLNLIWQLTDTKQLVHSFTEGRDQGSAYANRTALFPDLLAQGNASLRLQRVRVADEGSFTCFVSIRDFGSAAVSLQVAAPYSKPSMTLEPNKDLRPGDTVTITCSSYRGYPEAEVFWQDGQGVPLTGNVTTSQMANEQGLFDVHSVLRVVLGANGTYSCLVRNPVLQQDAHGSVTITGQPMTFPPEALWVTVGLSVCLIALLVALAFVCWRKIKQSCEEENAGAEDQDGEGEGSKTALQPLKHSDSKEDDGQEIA


Key:
[1] = molecular target: T1, human B7-H3 expressed by Mile Sven 1 …; test: flow cytometry titration of purified His6-tagged Gp2 on MS1-B7-H3 cells, anti-His6 FITC, 1:1 model
[2] = molecular target: T1, human B7-H3 expressed by Mile Sven 1 …; test: flow cytometry titration of purified His6-tagged fusion on MS1-B7-H3 cells, anti-His6 FITC, 1:1 model

Row | Binder | Kd [1] [nM] | Kd [2] [nM]
1 | Gp2 1.4.3 (designed binder, Purified from E. coli (pET-24b, NheI/BamHI cloning)) KFWATVQHVYSDFGFEVPVYAATLDEALQLAEVRYANSIFMVTRVRPHHHHHH | 3.4 | 
2 | Gp2 1.4.4 (designed binder, Purified from E. coli (pET-24b, NheI/BamHI cloning)) KFWATVQHVYSDFGFEAPVYAATLDEALQLAEVQYANSIFTVTRVRPHHHHHH | 1 | 
3 | Gp21.4.4-L15-SrtA (designed binder, range 60-206; also called Gp2-L15-SrtA fusion; Gp2 fusion construct) KFWATVQHVYSDFGFEAPVYAATLDEALQLAEVQYANSIFTVTRVRPGSGGGSGGGKGGGGTQAKPQIPKDKSKVAGYIEIPDADIKEPVYPGPATPEQLNRGVSFAEENESLDDQNISIAGHTFIDRPNYQFTNLKAAKKGSMVYFKVGNETRKYKMTSIRDVKPTDVGVLDEQKGKDKQLTLITCDDYNEKTGVWEKRKIFVATEVKHHHHHH |  | 1.8
